Source: patent publication US20240002501A1
Read-outs that look alike come from different tables or passages of the source.

Key:
[1] = target: L1-CAM-Fc (UniProt P32004); test: SPR (Biacore T100), L1-CAM-Fc immobilised on CM5 chip
[2] = target: L1-CAM-His; test: SPR (Biacore T100), L1-CAM-His immobilised on CM5 chip
[3] = target: L1-CAM-Fc (UniProt P32004); test: SPR (Biacore T100), L1-CAM-Fc immobilised on CM5 chip; remark: listed apart in the source

Sequence of L1-CAM-Fc (P32004 20-1120 limits assumed): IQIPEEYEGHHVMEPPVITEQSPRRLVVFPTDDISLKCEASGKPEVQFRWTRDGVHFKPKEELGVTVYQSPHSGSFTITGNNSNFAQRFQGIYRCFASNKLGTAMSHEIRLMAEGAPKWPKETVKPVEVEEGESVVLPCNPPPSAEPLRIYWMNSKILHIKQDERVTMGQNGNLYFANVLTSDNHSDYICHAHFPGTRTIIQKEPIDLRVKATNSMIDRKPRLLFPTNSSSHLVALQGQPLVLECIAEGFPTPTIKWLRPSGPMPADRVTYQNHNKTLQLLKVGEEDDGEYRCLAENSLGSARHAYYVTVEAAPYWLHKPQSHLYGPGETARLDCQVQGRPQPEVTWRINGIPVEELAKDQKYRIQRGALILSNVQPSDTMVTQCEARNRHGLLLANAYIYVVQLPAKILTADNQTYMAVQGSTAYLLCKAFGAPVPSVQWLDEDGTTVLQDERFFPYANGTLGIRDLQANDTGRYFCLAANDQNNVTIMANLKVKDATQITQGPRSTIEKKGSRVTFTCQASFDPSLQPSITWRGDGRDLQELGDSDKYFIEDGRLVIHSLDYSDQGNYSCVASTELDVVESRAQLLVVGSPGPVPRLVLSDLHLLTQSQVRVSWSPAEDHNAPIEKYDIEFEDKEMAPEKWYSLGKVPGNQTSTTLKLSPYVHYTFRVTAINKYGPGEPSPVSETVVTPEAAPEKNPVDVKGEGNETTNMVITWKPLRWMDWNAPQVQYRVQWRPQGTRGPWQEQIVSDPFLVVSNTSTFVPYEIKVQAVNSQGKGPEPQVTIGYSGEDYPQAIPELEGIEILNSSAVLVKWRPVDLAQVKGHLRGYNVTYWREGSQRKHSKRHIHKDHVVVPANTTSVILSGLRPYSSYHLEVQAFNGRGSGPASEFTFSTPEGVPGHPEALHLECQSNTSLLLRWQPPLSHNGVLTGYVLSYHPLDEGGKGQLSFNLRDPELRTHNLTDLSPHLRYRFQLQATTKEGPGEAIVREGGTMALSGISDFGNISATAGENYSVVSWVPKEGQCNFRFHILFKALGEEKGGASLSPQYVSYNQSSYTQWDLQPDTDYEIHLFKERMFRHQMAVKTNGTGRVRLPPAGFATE
Sequence of L1-CAM-His (P32004 20-1120): as the sequence (P32004 20-1120 limits assumed) above

B1: chCE7 (antibody, from another filing, V domains shown)
VH: QVQLQQPGAELVKPGASVKLSCKASGYTFTGYWMHWVKQRPGHGLEWIGEINPSNGRTNYNERFKSKATLTVDKSSTTAFMQLSGLTSEDSAVYFCARDYYGTSYNFDYWGQGTTLTVSS
VL: DIQMTQSSSSFSVSLGDRVTITCKANEDINNRLAWYQQTPGNSPRLLISGATNLVTGVPSRFSGSGSGKDYTLTITSLQAEDFATYYCQQYWSTPFTFGSGTELEIK
- Kd [1]: 0.618 nM
- Kd [2]: 1.3 nM
- Kd [3]: 1.42 nM
